# Measured values: US20140378382A1 (WISCONSIN ALUMNI RESEARCH FOUNDATION, published 2014)
# Non-standard residues stand in square brackets, D forms with d. Primed or numbered codes have the meaning given here. No end group written: not given here. APC = aminopyrrolidine carboxylic acid (2-aminopyrrolidine-4-carboxylic acid); ACPC″ = 2-aminocyclopentane carboxylic acid (X); ACPC = 2-aminocyclopentane carboxylic acid; β3hW = N[C@H](CC(=O)O)Cc1c[nH]c2ccccc12; hArg = N=C(N)NCCCC[C@H](N)C(=O)O; β3hE = N[C@@H](CCC(=O)O)CC(=O)O; β3hF = N[C@H](CC(=O)O)Cc1ccccc1; β3hL = CC(C)C[C@H](N)CC(=O)O; β3hK = NCCCC[C@H](N)CC(=O)O; β3hM = CSCC[C@H](N)CC(=O)O; β3hD = NC(CC(=O)O)CC(=O)O; β3hS = N[C@@H](CO)CC(=O)O; Aib = CC(C)(N)C(=O)O
# Molecular target: T1, PTHR-1 (species and cells not stated for the assay) (Homo sapiens (Human), UniProt Q03431 27-593)
# T1 sequence: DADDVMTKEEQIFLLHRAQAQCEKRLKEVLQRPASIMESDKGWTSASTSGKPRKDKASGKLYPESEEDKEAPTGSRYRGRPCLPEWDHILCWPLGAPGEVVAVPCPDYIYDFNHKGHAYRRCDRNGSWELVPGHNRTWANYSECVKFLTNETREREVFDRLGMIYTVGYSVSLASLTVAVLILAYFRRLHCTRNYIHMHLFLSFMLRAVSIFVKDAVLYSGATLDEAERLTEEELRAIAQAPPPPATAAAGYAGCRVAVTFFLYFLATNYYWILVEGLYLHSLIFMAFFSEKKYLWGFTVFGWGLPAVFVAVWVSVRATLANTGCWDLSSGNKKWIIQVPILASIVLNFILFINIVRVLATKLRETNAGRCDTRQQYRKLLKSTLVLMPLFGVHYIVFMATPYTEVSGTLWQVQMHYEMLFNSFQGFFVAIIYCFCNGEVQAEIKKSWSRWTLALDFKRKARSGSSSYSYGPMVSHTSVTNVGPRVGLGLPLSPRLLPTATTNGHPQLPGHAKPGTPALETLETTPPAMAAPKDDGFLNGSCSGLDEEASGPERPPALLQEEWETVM
# Test: cell-based or functional assay
Binder,Fold PTH [fold],cAMP EC50 [nM]
"[ACPC″]V[Aib]E[ACPC″]Q[ACPC″]MHQ[hArg]AKWLNSMRRVEWLRKKLQDVHNF-NH2 [M-ACPC(1,5,7)]",4.9,0.4
"[ACPC″]V[Aib]E[ACPC″]Q[ACPC″]MHQ[hArg]AK[β3hW]LNS[β3hM]RRV[β3hE]WLR[β3hK]KLQ[β3hD]VHN[β3hF]-NH2 (also: β3 residues (bold, underlined) not marked in the text) [M-X1,5,7-D6]",9.7,0.79
"[ACPC″]V[Aib]EIQ[ACPC″]MHQ[hArg]AK[ACPC″]LNS[ACPC″]RRV[APC]WLR[APC]KLQ[ACPC″]VHN[ACPC″]-NH2 [M-FcycD6_ACPC(1,7)]",21.8,1.77
"[ACPC″]V[Aib]EIQ[ACPC″]MHQ[hArg]AK[β3hW]LNS[β3hM]RRV[β3hE]WLR[β3hK]KLQ[β3hD]VHN[β3hF]-NH2 (also: β3 residues (bold, underlined) not marked in the text) [M-D6_ACPC(1,7)]",10.2,0.83
AVAEIQ[ACPC″]MHQ[hArg]AK[ACPC″]LNS[ACPC″]RRV[APC]WLR[APC]KLQ[ACPC″]VHN[ACPC″]-NH2 [M-FcycD6],6.3,0.51
"[ACPC″]V[Aib]EIQ[ACPC″]MHQ[hArg]AKWLNSMRRVEWLRKKLQDVHNF-NH2 [M-ACPC(1,7)]",6.3,0.52
"AVAEIQ[ACPC″]MHQ[hArg]AKWLNSMRRVEWLRKKLQDVHNF-NH2 (not fully specified (residues 14, 18, 22, 26, 30, 34)) [M-D6]",5.4,0.44

# Molecular target: T2, delNT PTHR1 (human, UniProt Q03431 27-593)
# T2 sequence (looked up): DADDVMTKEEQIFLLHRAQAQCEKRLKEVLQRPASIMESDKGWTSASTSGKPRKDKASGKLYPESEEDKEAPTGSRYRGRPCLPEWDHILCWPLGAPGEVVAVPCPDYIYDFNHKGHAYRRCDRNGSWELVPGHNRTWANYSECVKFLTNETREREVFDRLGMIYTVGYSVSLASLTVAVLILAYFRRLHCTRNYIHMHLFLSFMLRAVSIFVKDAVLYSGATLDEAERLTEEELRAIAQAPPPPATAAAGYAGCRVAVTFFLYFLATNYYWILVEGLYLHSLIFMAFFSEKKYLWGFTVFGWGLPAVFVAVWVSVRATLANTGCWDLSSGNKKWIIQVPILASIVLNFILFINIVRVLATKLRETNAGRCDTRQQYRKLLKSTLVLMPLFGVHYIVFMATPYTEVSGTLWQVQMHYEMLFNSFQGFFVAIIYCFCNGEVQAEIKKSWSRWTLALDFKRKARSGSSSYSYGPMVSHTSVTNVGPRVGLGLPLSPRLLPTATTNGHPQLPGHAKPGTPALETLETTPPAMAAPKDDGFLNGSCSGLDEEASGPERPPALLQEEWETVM
# Test: cell-based or functional assay
Binder,Fold PTH [fold],cAMP EC50 [nM]
SVS[ACPC]IQLMHNLGKHLNSMERVEWLRKKLQDVHNF-NH2 [ACPC(4) PTH(1-34)],510,32000
SVSEIQLMZNLGKHLNSMERVEWLRKKLQDVHNF (APC (Z) at 9; C-terminal amide) [APC(9) PTH(1-34)],87,5400
SVS[β3hE]IQLMHNLGKHLNSMERVEWLRKKLQDVHNF-NH2 [β3Glu(4) PTH(1-34)],,15000
SVSEIQL[β3hM]HNLGKHLNSMERVEWLRKKLQDVHNF-NH2 [β3Met(8) PTH(1-34)],,20000
SV[β3hS]EIQLMHNLGKHLNSMERVEWLRKKLQDVHNF-NH2 [β3Ser(3) PTH(1-34)],,340000
SVSEIQ[β3hL]MHNLGKHLNSMERVEWLRKKLQDVHNF-NH2 [β3Leu(7) PTH(1-34)],,67000

# Molecular target: T1, PTHR-1 (species and cells not stated …)
# Test: cell-based or functional assay
# Remark: another data set of the same source
Binder,Fold PTH [fold],cAMP EC50 [nM]
"[ACPC]VSEIQ[ACPC]MHNLGKHLNSMERVEWLRKKLQDVHNF-NH2 [ACPC(1,7)]",1.7,0.14
"[ACPC]VSEIQ[ACPC]MHNLGKWLNSMERVEWLRKKLQDVHNF-NH2 (not fully specified; printed as XVSEIQXMHNLGKWLNSMERVEWLRKKLQDVHNF-NH2; also: D6 β3 residues, positions not shown (marking lost)) [D6_ACPC(1,7)]",22.6,1.84
SVSEIQLMHNLGK[ACPC]LNS[ACPC]ERV[APC]WLR[APC]KLQ[ACPC]VHN[ACPC]-NH2 (not fully specified; printed as SVSEIQLMHNLGKXLNSXERVZWLRZKLQXVHNX-NH2) [FcycD6],3.2,0.26
"[ACPC″]VSEIQ[ACPC″]MHNLGK[ACPC″]LNS[ACPC″]ERV[APC]WLR[APC]KLQ[ACPC″]VHN[ACPC″]-NH2 [FcycD6_ACPC(1,7)]",8.7,0.71
"[ACPC]VSE[ACPC]Q[ACPC]MHNLGK[ACPC]LNS[ACPC]ERVEWLR[APC]KLQDVHN[ACPC]-NH2 (not fully specified; printed as XVSEXQXMHNLGKXLNSXERVEWLRZKLQDVHNX-NH2; also: further β3 residues, positions not shown (marking lost)) [CycD6_ACPC(1,5,7)]",266,21.7
"[ACPC]VSEIQ[ACPC]MHNLGK[ACPC]LNS[ACPC]ERVEWLR[APC]KLQDVHN[ACPC]-NH2 (not fully specified; printed as XVSEIQXMHNLGKXLNSXERVEWLRZKLQDVHNX-NH2; also: further β3 residues, positions not shown (marking lost)) [CycD6_ACPC(1,7)]",7.3,0.59
"[ACPC]VSE[ACPC]Q[ACPC]MHNLGKWLNSMERVEWLRKKLQDVHNF-NH2 (not fully specified; printed as XVSEXQXMHNLGKWLNSMERVEWLRKKLQDVHNF-NH2; also: D6 β3 residues, positions not shown (marking lost)) [D6_ACPC(1,5,7)]",2040,167
"SVSEIQLMHNLGK[ACPC″]LNS[ACPC″]ERV[β3hE]WLR[APC]KLQ[β3hD]VHN[ACPC″]-NH2 (also: β3 residues (bold, underlined) not marked in the text) [cycD6]",1.3,0.1

# Molecular target: T3, rat parathyroid hormone receptor 1, wild-type (rPTHR-1) (rat, UniProt P25961 27-591)
# T3 sequence (looked up): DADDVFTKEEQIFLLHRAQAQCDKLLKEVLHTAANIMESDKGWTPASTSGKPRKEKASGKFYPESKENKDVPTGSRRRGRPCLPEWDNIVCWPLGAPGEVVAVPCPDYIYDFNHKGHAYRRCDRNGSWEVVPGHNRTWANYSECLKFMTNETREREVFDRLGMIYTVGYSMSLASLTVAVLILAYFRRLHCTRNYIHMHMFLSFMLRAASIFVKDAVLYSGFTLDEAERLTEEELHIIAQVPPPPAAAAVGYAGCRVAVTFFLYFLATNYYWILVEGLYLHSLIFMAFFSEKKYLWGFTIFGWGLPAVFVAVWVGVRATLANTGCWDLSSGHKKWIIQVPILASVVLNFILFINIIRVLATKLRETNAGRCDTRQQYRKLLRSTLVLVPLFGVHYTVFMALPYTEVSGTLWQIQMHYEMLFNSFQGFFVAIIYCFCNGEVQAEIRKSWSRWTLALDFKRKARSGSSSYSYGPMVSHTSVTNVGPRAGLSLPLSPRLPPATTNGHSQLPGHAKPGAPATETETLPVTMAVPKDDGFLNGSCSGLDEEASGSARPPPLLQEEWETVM
# Test: cell-based or functional assay
row,Binder,cAMP Max [cps × 10-3]
1,"SVSEIQLMHNLGKHLNSMERVEWLRKKLQDVHNF-NH2 (also: five β3 residues, αααβ pattern, positions not given here) [C5]",48
2,"SVSEIQLMHNLGKHLNSMERVEWLRKKLQDVHNF-NH2 (also: five β3 residues, αααβ pattern, positions not given here) [D5]",43
3,SVSEIQLMHNLGKHLNSMERVEWLRKKLQDVHNF-NH2 (not fully specified (residue 19)) [A5],54
4,"SVSEIQLMHNLGKHLNSMERVEWLRKKLQDVHNF-NH2 (also: three β3 residues, αααβ pattern, positions not given here) [C3]",68
5,"SVSEIQLMHNLGKHLNSMERVEWLRKKLQDVHNF-NH2 (also: three β3 residues, αααβ pattern, positions not given here) [D3]",65
